These results are taken from patent publication US20250340659A1 (PETMEDIX, published 2025).

The target of assay [1] is T1, recombinant canine OX40L ECD-TNCc-HIS protein (canine).
T1 construct: also called Trimeric OX40L probe (HIS tag); trimeric canine OX40L
T1 chain: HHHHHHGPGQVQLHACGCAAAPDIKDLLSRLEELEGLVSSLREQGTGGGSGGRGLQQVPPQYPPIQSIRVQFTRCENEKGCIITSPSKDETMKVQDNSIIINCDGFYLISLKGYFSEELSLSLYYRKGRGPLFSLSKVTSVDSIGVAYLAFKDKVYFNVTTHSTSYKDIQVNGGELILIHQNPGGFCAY
Put plainly: SPR Koff (kd1). The essentials:
(§1)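 Purified antigen amine-coupled at low density to a CM5 chip; candidate antibodies injected as analyte over a concentration range. Kinetic curves fitted with a bivalent analyte model to give functional affinity and dissociation rates.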

The target in assay [2] is T2, canine OX40L, full length membrane form, expressed on HEK293 cells (canine).
T2 construct: also called OX40L expressing HEK; HEK OX40L cells
T2 chain: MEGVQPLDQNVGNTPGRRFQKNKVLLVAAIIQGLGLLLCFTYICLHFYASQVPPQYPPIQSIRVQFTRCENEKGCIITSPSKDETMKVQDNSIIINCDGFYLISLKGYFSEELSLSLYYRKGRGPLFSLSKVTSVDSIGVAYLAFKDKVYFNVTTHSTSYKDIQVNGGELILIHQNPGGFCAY
The assay can be described thus: flow cytometry, OX40L HEK minus WT HEK. The procedure, abridged: (§2)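 CHO supernatants at 1, 5 or 10 μg/ml in PBS/3% FBS incubated 30′ on ice with cells surface-expressing canine OX40L. Bound antibody detected with fluorescent anti-canine Fc secondary (1:1000, 30 min, dark) and measured by flow cytometry, with parental WT HEK signal subtracted where stated.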

Assay [3] concerns the target T1, recombinant canine OX40L ECD-TNCc-HIS …. Put plainly: SPR Koff (kd2). The essentials: as §1
Assay [4] shares this target. Put plainly: SPR KD1, bivalent analyte model. The procedure, abridged:
as §1

For assay [5], the target named is T2, canine OX40L, full length membrane …. Put plainly: cell-based or functional assay.
For assay [6] the target is unchanged. The assay can be described thus: flow cytometry. The essentials:
as §2
In general terms: A flow cytometer gives signals particle by particle.

B1: PMX030 (antibody)
heavy: EVQLVESGGDLVKPGGSLRLSCVASGFTFSNYHMNWVRQAPGKGLQWVAYVVSGGSTTSYADAVKGRFTISRDNAKNTLYLQMNSLRAEDTAVYYCAKGTSSWGVPMDYWGHGTSLFVSSASTTAPSVFPLAPSCGSTSGSTVALACLVSGYFPEPVTVSWNSGSLTSGVHTFPSVLQSSGLYSLSSMVTVPSSRWPSETFTCNVAHPASKTKVDKPVPKRENGRVPRPPDCPKCPAPESLGGPSVFIFPPKPKDTLLIARTPEVTCVVVDLGREDPEVQISWFVDGKQMQTAKTQPREEQFNGTYRVVSVLPIGHQDWLKGKQFTCKVNHIGLPSPIERTISKARGQAHQPSVYVLPPSREELSKNTVSLTCLIKDFFPPDIDVEWQSNGQQEPESKYRTTPPQLDEDGSYFLYSKLSVDKSRWQRGDTFICAVMHEALHNHYTQKSLSHSPGK
VL: SYVLTQLPSVSVTLRQTARITCGGDSIRSKNVYWYQQKLGQAPVLIIYDDSSRPSGIPERFSGANSGNTATLTISGALAEDEADYYCQVWDSSTSVFGGGTHLTVL
notes: also called PMX30
One may read the koff as the rate constant with which the complex falls apart. For B1, the koff in assay [1] worked out at 0.0283 s⁻¹. The molecule also showed a GEO mean difference in assay [2] of 1.39e+06. Moreover, in assay [3], the koff turned out to be 0.000924 s⁻¹. For the same molecule, the Kd in assay [4] amounted to 114 nM. Moreover, in assay [5], the “% Signal Inhibition Average” value stood at 65.6%, the “% Signal Inhibition Rep1” value was 70.6%, the “% Signal Inhibition Rep2” value is 83.9% and the “% Signal Inhibition Rep3” value amounted to 42.3%. Besides, in assay [6], the “GEO mean OX40L expressing HEK” value was determined as 1.42e+06.

B2: PMX293 (antibody, V domains shown)
VH: EVRLLESGGDLVKPAGSLRLSCAVSGFTFSTYDMSWVRQAPGKGLQWVAYITYDGRTTSYTDTVKGRFTVSRDNAKNMLYLKMNSLRSEDAAVYYCAKAHRGWFFDHWGQGTLVTVSS
VL: SYVLTQLPSVSVTLRQTARITCGGDSIGSKNVYWYQQKLGQAPVLIIYDDTSRPSGIPERFSGANSGTTATLTISGALAEDEADYYCQVWDSSTGVFGGGTHLTVL
As to B2, the koff in assay [1] stood at 0.000387 s⁻¹. The molecule also registered a GEO mean difference in assay [2] of 598000. Besides, the koff in assay [3] was found to be 145 s⁻¹. For the same molecule, the Kd in assay [4] stood at 1 nM. In assay [5], the “% Signal Inhibition Average” value was found to be 73.7%, the “% Signal Inhibition Rep1” value was 81.6%, the “% Signal Inhibition Rep2” value was found to be 77.5% and the “% Signal Inhibition Rep3” value worked out at 62.1%. The “GEO mean OX40L expressing HEK” value in assay [6] came to 602000.

B3: PMX035 (antibody, V domains shown)
VH: EVQLVESGGDLVKPGGSLRLSCVASGFTFSNFEMYWVRQAPGKGLEWVARIYKSGSTTYHSERVKGRFTISKDSATNMAFLQMNSLRAEDTAVYYCTSASSTGWRFDYWGQGTLVTVSS
VL: SYVLTQLPSVSVTLRQTARITCGGDSIGRKNVCWFQQKLGQAPVLIIYDDNSRPSGIPERFSGANSGNTATLTISGALAEDEADYYCQVWDSSTGIFGGGTHLTVL
notes: also called PMX35
As for B3, the koff in assay [1] was found to be 0.0311 s⁻¹. In addition, the GEO mean difference in assay [2] is 1.38e+06. Besides, in assay [3], the koff was 0.000498 s⁻¹. Besides, the Kd in assay [4] is 269 nM. For the same molecule, in assay [5], the “% Signal Inhibition Average” value worked out at 73.5%, the “% Signal Inhibition Rep1” value amounted to 85.3%, the “% Signal Inhibition Rep2” value worked out at 67.4% and the “% Signal Inhibition Rep3” value was 67.8%. Further, the “GEO mean OX40L expressing HEK” value in assay [6] was 1.41e+06.

B4: PMX294 (antibody, V domains shown)
VH: EVQLVESGGDLVKPEGSLRLSCAVSGFTFSSNDMSWVRQAPGKGLQWVAYITYDGRSTSYTDIVKGRFTVSRDNAKNTLYLQMNSLRSEDAAVYYCAKAQRGWFFDYWGQGTLVTVSS
VL: SYVLTQLPSVSVTLRQTARITCGGDSIGSKNVYWYQQKLGQAPVLIIYDDDSRPSGIPERISGANSGNTATLTISGALAEDEADYYCQVWDSSTGVFGGGTHLTVL
For the molecule B4, the dissociation rate constant (koff) in assay [1] stood at 0.00155 s⁻¹. In addition, in assay [2], the GEO mean difference worked out at 591000. Moreover, the koff in assay [3] came to 2.69 s⁻¹. Further, the Kd in assay [4] is 14.4 nM. In assay [5], the “% Signal Inhibition Average” value came out at 78.6%, the “% Signal Inhibition Rep1” value is 94%, the “% Signal Inhibition Rep2” value was 88.7% and the “% Signal Inhibition Rep3” value came out at 53%. Besides, in assay [6], the “GEO mean OX40L expressing HEK” value worked out at 595000.

B5: PMX040 (antibody, V domains shown)
VH: EVQLVESGGDLVKPGGSLRLSCVASGFTFSNFEMYWVRQAPGKGLEWVARIYESGTTTYHAEGVKGRFTISKDNVKNMAYLQMNSLRAEDTAVYYCTSASSSSWRFDYWGQGTLVTVSS
VL: SYVLTQLPSVSVTLRQTARITCGGDSIGRKNVCWFQQKLGQAPILIIYDDSSRPSGIPERFSGANSGNTATLTISGALAEDEADYYCQVWDSSTGIFGGGTHLTVL
notes: also called PMX40
Regarding B5, in assay [1], the koff was determined as 0.000748 s⁻¹. This molecule also yielded a GEO mean difference in assay [2] of 1.15e+06. Also, the koff in assay [3] was determined as 0.436 s⁻¹. Further, the Kd in assay [4] was found to be 1.26 nM. Besides, in assay [5], the “% Signal Inhibition Average” value came out at 77.1%, the “% Signal Inhibition Rep1” value was found to be 75.4%, the “% Signal Inhibition Rep2” value worked out at 84.2% and the “% Signal Inhibition Rep3” value was 71.8%. Besides, the “GEO mean OX40L expressing HEK” value in assay [6] was determined as 1.18e+06.

B6: PMX031 (antibody)
heavy: EVQLVESGGDLVKPGGSLRLSCVASGFTFSNYHMNWVRQAPGKGLQWVAYVVSGGTTTTYADAVKGRFTISRDNAKNTLYLQMNSLRAEDTAVYYCAKGTSTWGVPMDYWGHGTSLFVSSASTTAPSVFPLAPSCGSTSGSTVALACLVSGYFPEPVTVSWNSGSLTSGVHTFPSVLQSSGLYSLSSMVTVPSSRWPSETFTCNVAHPASKTKVDKPVPKRENGRVPRPPDCPKCPAPESLGGPSVFIFPPKPKDTLLIARTPEVTCVVVDLGREDPEVQISWFVDGKQMQTAKTQPREEQFNGTYRVVSVLPIGHQDWLKGKQFTCKVNHIGLPSPIERTISKARGQAHQPSVYVLPPSREELSKNTVSLTCLIKDFFPPDIDVEWQSNGQQEPESKYRTTPPQLDEDGSYFLYSKLSVDKSRWQRGDTFICAVMHEALHNHYTQKSLSHSPGK
VL: SYVLTQLPSVSVTLRQTARITCGGDSIRSKNVYWYQKKLGQAPVLIIYDDSSRPSGIPERFSGANSGNTATLTISGALAEDEADYYCQVWDSSTSVFGGGTHLTVL
notes: also called PMX31
B6: the koff in assay [1] is 0.0124 s⁻¹. In assay [2], the GEO mean difference turned out to be 1.51e+06. Also, the koff in assay [3] worked out at 0.000606 s⁻¹. The Kd in assay [4] amounted to 154 nM. Moreover, in assay [5], the “% Signal Inhibition Average” value worked out at 78.4%, the “% Signal Inhibition Rep1” value was determined as 83.5%, the “% Signal Inhibition Rep2” value worked out at 89.1% and the “% Signal Inhibition Rep3” value is 62.7%. Further, in assay [6], the “GEO mean OX40L expressing HEK” value stood at 1.55e+06.

B7: PMX156 (antibody, V domains shown)
VH: ELQLVESGGDLVKPAGSLRLSCVASGFTFSNFRMSWVRQAPGKGLQFVAGINSDGYSTQYRDDVKGRFTISRDNTEKTLYLQMNNLRVEDTAMYYCVKDQGSWGGNFDYWGQGTLVTVSS
VL: SYGLTQPPSVNVTLRETAHITCGGDSIGSKYVQWIQQIPGQAPVVIIYKDRNRPTGIPERFSGANSGNTATLTISGALAEDEADYYCQVGDSGTSVFGGGTHLTVL
On to B7, for which the koff in assay [1] stood at 0.102 s⁻¹. Also, the GEO mean difference in assay [2] was 672000. The koff in assay [3] came to 0.000238 s⁻¹. For the same molecule, the Kd in assay [4] worked out at 1980 nM. Moreover, in assay [5], the “% Signal Inhibition Average” value is 35.1%, the “% Signal Inhibition Rep1” value was found to be 21.6%, the “% Signal Inhibition Rep2” value was found to be 34.5% and the “% Signal Inhibition Rep3” value was 49.1%. Also, the “GEO mean OX40L expressing HEK” value in assay [6] is 680000.
